Results from patent publication US7507788B2, “Peptides and methods for cell death regulation” (Rappaport Family Institute for Research in the Medical …, priority 2002, dated 2009).

Experiments:
human XIAP = target: T1, human XIAP (Homo sapiens, UniProt P98170); experiment: In vitro ubiquitination / self-conjugation reaction with 35S-labeled XIAP; format: biochemical; details: 35S-XIAP; FIG. 8, 15B, 16, 17
T1 construct: host or cells: cell-free in vitro transcription-translation; the partner His-UBCH5C was made in E. coli BL21 (pLysS)
T1 sequence (P98170 whole entry): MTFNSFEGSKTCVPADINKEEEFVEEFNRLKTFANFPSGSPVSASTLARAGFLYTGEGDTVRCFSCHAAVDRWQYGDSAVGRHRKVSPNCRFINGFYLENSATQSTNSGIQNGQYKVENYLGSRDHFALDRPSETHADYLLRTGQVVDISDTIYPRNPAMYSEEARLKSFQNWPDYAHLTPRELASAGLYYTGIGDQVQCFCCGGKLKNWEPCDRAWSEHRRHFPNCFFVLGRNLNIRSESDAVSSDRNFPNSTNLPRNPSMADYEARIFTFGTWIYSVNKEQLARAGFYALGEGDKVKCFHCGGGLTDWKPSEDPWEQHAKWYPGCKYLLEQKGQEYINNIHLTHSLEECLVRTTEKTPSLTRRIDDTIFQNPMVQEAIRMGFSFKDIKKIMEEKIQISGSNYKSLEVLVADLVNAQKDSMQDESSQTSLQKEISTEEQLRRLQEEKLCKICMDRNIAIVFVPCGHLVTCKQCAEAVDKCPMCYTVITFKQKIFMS
Method: ^35S-methionine labeled mutant and wild type DIAP1, or wild type XIAP were generated in an in vitro transcription-translation system (Promega) from diap1-pET14b, diap1^21-4S pET14b and xiap pcDNA3.1 plasmids. For purification of His-UBCD1 and His-UBCH5C, ubcD1-pET14b and ubcH5C-pT7-7 were expressed in BL21 (pLysS) and purified on a Ni-column according to the manufacturer's protocol (Novagen). In vitro ubiquitination assays were carried out in a total volume of 12.5 μl and contained: ^35S-methionine labeled wild type or mutant DIAP1 or Wild type XIAP (approximately 10,000 cpm), and 250ng E1 (made in baculovirus; vector is the kind gift of Dr. Kazuhiro Iwai, University of Osaka, Osaka, Japan). Unless otherwise stated, 1.2 μg His-UBCD1 or His-UBCH5C was used in each reaction. Reaction mixture contained also 40 mM Tris-HCl, pH 7.6, 5 mM MgCl2, 1 mM DTT, 5 μg ubiquitin, 100 ng Ubiquitin-aldehyde, 2 mM ATPγS [Adenosine 5′-O-(3-thiotriphosphate)]. Reactions were incubated for 50 min at 37° C., and resolved, following addition of a sample buffer on SDS-PAGE (10%). Gels were dried and proteins visualized via Phosphorimaging (Fuji, Japan).

DIAP1 = target: T2, DIAP1 (Drosophila melanogaster, UniProt Q24306); experiment: In vitro ubiquitination / self-conjugation reaction with 35S-labeled DIAP1; format: biochemical; details: 35S-DIAP1 with E1, UBCD1 and ubiquitin; SDS-PAGE; FIG. 13-15A
T2 construct: The full length ORF of diap1 was subcloned into the BamH1 site of pET14b (Novagen); His (N); host or cells: cell-free in vitro transcription-translation (reticulocyte lysate); the partner His-UBCD1 was made in E. coli BL21 (pLysS)
T2 sequence (Q24306 1-438): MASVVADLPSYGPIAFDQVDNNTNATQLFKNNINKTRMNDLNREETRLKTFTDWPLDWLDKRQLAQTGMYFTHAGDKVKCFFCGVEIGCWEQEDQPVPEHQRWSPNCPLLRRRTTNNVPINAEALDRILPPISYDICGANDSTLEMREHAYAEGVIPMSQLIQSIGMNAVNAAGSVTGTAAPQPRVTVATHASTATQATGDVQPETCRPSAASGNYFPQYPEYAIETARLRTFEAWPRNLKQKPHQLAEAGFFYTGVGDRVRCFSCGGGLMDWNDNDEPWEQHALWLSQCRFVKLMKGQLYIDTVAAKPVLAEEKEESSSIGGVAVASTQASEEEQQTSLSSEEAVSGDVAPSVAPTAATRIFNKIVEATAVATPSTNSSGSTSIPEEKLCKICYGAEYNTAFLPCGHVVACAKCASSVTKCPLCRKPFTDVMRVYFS
Method: ^35S-methionine labeled mutant and wild type DIAP1, or wild type XIAP were generated in an in vitro transcription-translation system (Promega) from diap1-pET14b, diap1^21-4S pET14b and xiap pcDNA3.1 plasmids. For purification of His-UBCD1 and His-UBCH5C, ubcD1-pET14b and ubcH5C-pT7-7 were expressed in BL21 (pLysS) and purified on a Ni-column according to the manufacturer's protocol (Novagen). In vitro ubiquitination assays were carried out in a total volume of 12.5 μl and contained: ^35S-methionine labeled wild type or mutant DIAP1 or Wild type XIAP (approximately 10,000 cpm), and 250ng E1 (made in baculovirus; vector is the kind gift of Dr. Kazuhiro Iwai, University of Osaka, Osaka, Japan). […]
In order to determine whether both amino acid consensus sequences described above are essential for IAP degradation, peptides were generated, with amino acid sequences as described in Tables 1, 3 and 5 above, containing one of each amino acid consensus sequence, or both, and their ability to stimulate in vitro IAP ubiquitination was assessed (FIG. 13). ^35S-methionine labeled wild type DIAP1 was incubated with 250 ng E1 and ubiquitin, with or without the addition of the RPR wild type protein, or peptides containing the RHG amino acid consensus sequence of the RPR HID or GRIM proteins, and the reaction products were resolved by SDS-PAGE.

Molecule	stimulation of XIAP auto-ubiquitination / self-conjugation in vitro (human XIAP)	stimulation of IAP (DIAP1) self-conjugation / auto-ubiquitination in vitro (DIAP1)
AVAFYIPDQATLLR QWRFLATVVL (AVAFYIPDQATLLRQWRFLATVVL; Drosophila melanogaster) [Peptide R15W, Reaper RHG plus Trp-box peptide]	greatest effect	–
AVPFYLPE QWRFLATVVL (AVPFYLPEQWRFLATVVL; Drosophila melanogaster) [Peptide H9-W, Hid RHG plus Reaper Trp-box peptide]	greatest effect	–
Reaper: wild type Drosophila IAP inhibitor (IAPi) protein REAPER (RPR) (protein) MAVAFYIPDQATLLREAEQKEQQILRLRESQWRFLATVVLETLRQYTSCHPKTGRKSGKYRKPSQ	strongly stimulated	resulted in auto-ubiquitination
